Reference: article PMC2685083

Tests used:
[1] = target: myc-tagged β^+/his6-tagged β^C heterodimer (E. coli) (UniProt P0A988); assay: SPR
[2] = target: β^+–δ1 complex (his6-tagged β^+ homodimer with one tightly bound δ) (E. coli) (UniProt P0A988); assay: SPR

| Substance | Kd [1] [nM] | stoichiometry N [1] | Kd [2] [nM] | off rate relative to that from β^+ [1] [fold] | koff [1] [s⁻¹] | kon [1] [M⁻¹ s⁻¹] |
| --- | --- | --- | --- | --- | --- | --- |
| δ subunit of the DnaX clamp loader complex (from UniProt P28630 1-343) (natural protein) | 15.6 | 1 | 160 |  |  |  |
| DnaX clamp loader complex, γ3δδ′χψ form (from UniProt P06710-2;P28630;P28631;P28905;P28632) |  |  |  | 2 |  |  |
| α catalytic subunit of Pol III (from UniProt P10443 1-1160) (enzyme) | 172 |  |  |  | 0.0125 | 72700 |
